According to patent US20260258128A1:

Experiments:
human CD3εδ (human) = human CD3εδ (human) (UniProt P07766); experiment: SPR (Biacore T200), binding to CD3εδ against binding to CD3εγ
[1] = biological target: CD3 on T cells of human peripheral blood mononuclear cells (human) (UniProt P07766); experiment: cell-based or functional assay
Chain of CD3 on T cells of human peripheral blood mononuclear cells (human) (P07766 23-207): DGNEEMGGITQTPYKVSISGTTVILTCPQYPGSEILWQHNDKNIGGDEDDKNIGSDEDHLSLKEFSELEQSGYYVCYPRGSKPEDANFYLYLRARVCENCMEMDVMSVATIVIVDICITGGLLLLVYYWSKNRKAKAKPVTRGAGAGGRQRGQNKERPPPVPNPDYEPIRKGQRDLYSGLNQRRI

Chain of human CD3εδ (human) (P07766 23-126, stated change not applied, chain 1 of 2): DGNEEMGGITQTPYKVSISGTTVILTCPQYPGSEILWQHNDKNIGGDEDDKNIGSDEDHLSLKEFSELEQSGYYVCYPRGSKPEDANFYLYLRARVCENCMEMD
Chain of human CD3εδ (human) (P04234 22-105, stated change not applied, chain 2 of 2, further chain): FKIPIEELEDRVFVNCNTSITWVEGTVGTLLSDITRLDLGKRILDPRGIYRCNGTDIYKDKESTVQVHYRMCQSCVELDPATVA

Question: With CD3 (UCHT1)-binding monoclonal antibody as the substance, how does the ratio of the binding strength to CD3εδ/binding strength to CD3εγ (human CD3εδ (human)) read?
Answer: Its ratio of the binding strength to CD3εδ/binding strength to CD3εγ is 19.3 fold.

Question: And the Death of cancer cells EC50 (MDA-MB-231 + human PBMC, flow cytometry) [1]?
Answer: Its Death of cancer cells EC50 (MDA-MB-231 + human PBMC, flow cytometry) is 0.5 pM.

Question: What about the Death of cancer cells Emax (%) [1] of the same substance?
Answer: The Death of cancer cells Emax (%) was 46%.

Question: And the IFNγ release EC50 [1]?
Answer: Its IFNγ release EC50 is 3 pM.

Question: What about the IFNγ release Maximum concentration [1] of the same substance?
Answer: Its IFNγ release Maximum concentration is 16 ng/mL.

Question: What about the T cell activation (CD3+ CD8+ CD69+), human PBMC only, flow cytometry [1] of the same substance?
Answer: Its T cell activation (CD3+ CD8+ CD69+), human PBMC only, flow cytometry is 60%.
